# From the supplement of paper PMC11246515
# ± gives the standard deviation of the averaged measurements.
# Experiment: total protein half-life in vivo (active degradation + dilution); higher = more stable protein
# [1] = E. coli NCM3722 delta-clpP delta-lon delta-hslV, growth: N-lim chemostat, doubling time 6 h
# [2] = E. coli NCM3722 delta-hslV, growth: N-lim chemostat, doubling time 6 h
# [3] = E. coli NCM3722 delta-lon, growth: N-lim chemostat, doubling time 6 h
# [4] = E. coli NCM3722 delta-smpB, growth: N-lim chemostat, doubling time 6 h
# [5] = wild type E. coli NCM3722, growth: C-lim chemostat, doubling time 3 h
# [6] = wild type E. coli NCM3722, growth: C-lim chemostat, doubling time 6 h
# [7] = wild type E. coli NCM3722, growth: C-lim chemostat, doubling time 12 h
# [8] = wild type E. coli NCM3722, growth: N-lim chemostat, doubling time 6 h
# [9] = wild type E. coli NCM3722, growth: N-lim chemostat, doubling time 12 h
# [10] = wild type E. coli NCM3722, growth: P-lim chemostat, doubling time 6 h
# [11] = wild type E. coli NCM3722, growth: P-lim chemostat, doubling time 12 h
# [12] = E. coli NCM3722 delta-clpP, growth: N-lim chemostat, doubling time 6 h
Sequence,total protein half-life in vivo [1],total protein half-life in vivo [2],total protein half-life in vivo [3],total protein half-life in vivo [4],total protein half-life in vivo [5],total protein half-life in vivo [6],total protein half-life in vivo [7],total protein half-life in vivo [8],total protein half-life in vivo [9],total protein half-life in vivo [10],total protein half-life in vivo [11],total protein half-life in vivo [12]
MKQPGEELQETLTELDDRAVVDYLIKNPEFFIRNARAVEAIRVPHPVRGTVSLVEWHMARARNHIHVLEENMALLMEQAIANEGLFYRLLYLQRSLTAASSLDDMLMRFHRWARDLGLAGASLRLFPDRWRLGAPSNHTHLALSRQSFEPLRIQRLGQEQHYLGPLNGPELLVVLPEAKAVGSVAMSMLGSDADLGVVLFTSRDASHYQQGQGTQLLHEIALMLPELLERWIERV,5.46 ± 0.28 h,1.73 ± 0.75 h,1.21 ± 0.07 h,0.944 ± 0.016 h,1.4 ± 0.051 h,2.35 ± 0.43 h,2.74 ± 0.45 h,1.33 h,1.56 h,2.18 ± 0.26 h,3.12 ± 1 h,
MKQSHFFAHLSRLKLINRWPLMRNVRTENVSEHSLQVAMVAHALAAIKNRKFGGNVNAERIALLAMYHDASEVLTGDLPTPVKYFNSQIAQEYKAIEKIAQQKLVDMVPEELRDIFAPLIDEHAYSDEEKSLVKQADALCAYLKCLEELAAGNNEFLLAKTRLEATLEARRSQEMDYFMEIFVPSFHLSLDEISQDSPL,4.544 ± 0.041 h,4.17 ± 0.19 h,5.57 ± 1.7 h,4.07 ± 0.4 h,2.94 ± 0.21 h,5.64 ± 0.19 h,,4.16 ± 0.45 h,7.12 ± 0.38 h,4.86 ± 0.56 h,9.76 ± 0.83 h,4.34 ± 0.065 h
MKQTQRHNGIIELVKQQGYVSTEELVEHFSVSPQTIRRDLNELAEQNLILRHHGGAALPSSSVNTPWHDRKATQTEEKERIARKVAEQIPNGSTLFIDIGTTPEAVAHALLNHSNLRIVTNNLNVANTLMVKEDFRIILAGGELRSRDGGIIGEATLDFISQFRLDFGILGISGIDSDGSLLEFDYHEVRTKRAIIENSRHVMLVVDHSKFGRNAMVNMGSISMVDAVYTDAPPPVSVMQVLTDHHIQLELC [P0ACL0],6.303 ± 0.03 h,5.156 ± 0.034 h,5.78 ± 0.11 h,5.52 ± 0.89 h,2.84 ± 0.11 h,5.9 ± 0.41 h,10.73 ± 0.031 h,5.84 ± 0.25 h,10.323 ± 0.00092 h,5.28 ± 0.33 h,11.3 ± 0.63 h,5.91 ± 0.36 h
MKQTVAAYIAKTLESAGVKRIWGVTGDSLNGLSDSLNRMGTIEWMSTRHEEVAAFAAGAEAQLSGELAVCAGSCGPGNLHLINGLFDCHRNHVPVLAIAAHIPSSEIGSGYFQETHPQELFRECSHYCELVSSPEQIPQVLAIAMRKAVLNRGVSVVVLPGDVALKPAPEGATMHWYHAPQPVVTPEEEELRKLAQLLRYSSNIALMCGSGCAGAHKELVEFAGKIKAPIVHALRGKEHVEYDNPYDVGMTGLIGFSSGFHTMMNADTLVLLGTQFPYRAFYPTDAKIIQIDINPASIGAHSKVDMALVGDIKSTLRALLPLVEEKADRKFLDKALEDYRDARKGLDDLAKPSEKAIHPQYLAQQISHFAADDAIFTCDVGTPTVWAARYLKMNGKRRLLGSFNHGSMANAMPQALGAQATEPERQVVAMCGDGGFSMLMGDFLSVVQMKLPVKIVVFNNSVLGFVAMEMKAGGYLTDGTELHDTNFARIAEACGITGIRVEKASEVDEALQRAFSIDGPVLVDVVVAKEELAIPPQIKLEQAKGFSLYMLRAIISGRGDEVIELAKTNWLR,5.5 ± 0.51 h,4.77 ± 0.08 h,5.321 ± 0.051 h,4.71 ± 0.4 h,3.19 ± 0.15 h,5.59 ± 0.21 h,11.2 ± 2.6 h,4.7 ± 0.064 h,7.734 ± 0.064 h,5.614 ± 0.02 h,11.6 ± 0.17 h,5.2 ± 0.97 h
MKQTVYIASPESQQIHVWNLNHEGALTLTQVVDVPGQVQPMVVSPDKRYLYVGVRPEFRVLAYRIAPDDGALTFAAESALPGSPTHISTDHQGQFVFVGSYNAGNVSVTRLEDGLPVGVVDVVEGLDGCHSANISPDNRTLWVPALKQDRICLFTVSDDGHLVAQDPAEVTTVEGAGPRHMVFHPNEQYAYCVNELNSSVDVWELKDPHGNIECVQTLDMMPENFSDTRWAADIHITPDGRHLYACDRTASLITVFSVSEDGSVLSKEGFQPTETQPRGFNVDHSGKYLIAAGQKSHHISVYEIVGEQGLLHEKGRYAVGQGPMWVVVNAH,,4.79 ± 0.47 h,6.52 ± 0.2 h,4.87 ± 0.15 h,3.17 ± 0.23 h,,11.1 ± 2 h,4.95 ± 0.27 h,9.37 ± 2.2 h,6.2 ± 2.5 h,,4.59 ± 0.99 h
MKRASLLTLTLIGAFSAIQAAWAVDYPLPPTGSRLVGQNQTYTVQEGDKNLQAIARRFDTAAMLILEANNTIAPVPKPGTTITIPSQLLLPDAPRQGIIVNLAELRLYYYPPGENIVQVYPIGIGLQGLETPVMETRVGQKIPNPTWTPTAGIRQRSLERGIKLPPVVPAGPNNPLGRYALRLAHGNGEYLIHGTSAPDSVGLRVSSGCIRMNAPDIKALFSSVRTGTPVKVINEPVKYSVEPNGMRYVEVHRPLSAEEQQNVQTMPYTLPAGFTQFKDNKAVDQKLVDKALYRRAGYPVSVSSGATPAASNAPSVESAQNGEPEQGNMLRVTQ,5.45 ± 0.37 h,5.75 ± 0.64 h,5.59 ± 0.22 h,5.31 ± 0.5 h,3.12 ± 0.47 h,6.04 ± 1.4 h,12.4 ± 2.9 h,5.2 ± 0.094 h,9.08 ± 0.15 h,5.28 ± 0.24 h,11.2 ± 1.1 h,5.31 ± 0.28 h
